According to patent US20040087777A1 (NEURALAB, published 2004):

Legend:
Assay in all cases: rNET
… analog, Residue 5 = G = target: T1, … analog, Residue 5 = G
T1 peptide: DAEFGHDSGY
Procedure: (§1) The rNET epitope map assay provides information about the contribution of individual residues within the epitope to the overall binding activity of the antibody. rNET analysis uses synthesized systematic single substituted peptide analogs. Binding of an antibody being tested is determined against native peptide (native antigen) and against 19 alternative “single substituted” peptides, each peptide being substituted at a first position with one of 19 non-native amino acids for that position. A profile is generated reflecting the effect of substitution at that position with the various non-native residues. Profiles are likewise generated at successive positions along the antigenic peptide. The combined profile, or epitope map, (reflecting substitution at each position with all 19 non-native residues) can then be compared to a map similarly generated for a second antibody.
(§2) Antibodies were tested for binding against the native Aβ peptide [sequence] […] Residues 1-8 were systematically substituted with each of the 19 non-native residues for that position.

… analog, Residue 7 = E = target: T2, … analog, Residue 7 = E
T2 peptide: DAEFRHESGY
Procedure: as §1, §2

… analog, Residue 8 = C = target: T3, … analog, Residue 8 = C
T3 peptide: DAEFRHDCGY
Procedure: as §1, §2

… analog, Residue 8 = D = target: T4, … analog, Residue 8 = D
T4 peptide: DAEFRHDDGY
Procedure: as §1, §2

… analog, Residue 8 = E = target: T5, … analog, Residue 8 = E
T5 peptide: DAEFRHDEGY
Procedure: as §1, §2

… analog, Residue 8 = G = target: T6, … analog, Residue 8 = G
T6 peptide: DAEFRHDGGY
Procedure: as §1, §2

… analog, Residue 8 = H = target: T7, … analog, Residue 8 = H
T7 peptide: DAEFRHDHGY
Procedure: as §1, §2

… analog, Residue 8 = I = target: T8, … analog, Residue 8 = I
T8 peptide: DAEFRHDIGY
Procedure: as §1, §2

… analog, Residue 8 = L = target: T9, … analog, Residue 8 = L
T9 peptide: DAEFRHDLGY
Procedure: as §1, §2

… analog, Residue 8 = M = target: T10, … analog, Residue 8 = M
T10 peptide: DAEFRHDMGY
Procedure: as §1, §2

… analog, Residue 8 = P = target: T11, … analog, Residue 8 = P
T11 peptide: DAEFRHDPGY
Procedure: as §1, §2

… analog, Residue 8 = Q = target: T12, … analog, Residue 8 = Q
T12 peptide: DAEFRHDQGY
Procedure: as §1, §2

… analog, Residue 8 = R = target: T13, … analog, Residue 8 = R
T13 peptide: DAEFRHDRGY
Procedure: as §1, §2

… analog, Residue 8 = T = target: T14, … analog, Residue 8 = T
T14 peptide: DAEFRHDTGY
Procedure: as §1, §2

… analog, Residue 8 = W = target: T15, … analog, Residue 8 = W
T15 peptide: DAEFRHDWGY
Procedure: as §1, §2

… analog, Residue 1 = A = target: T16, … analog, Residue 1 = A
T16 peptide: AAEFRHDSGY
Procedure: as §1, §2

… analog, Residue 1 = E = target: T17, … analog, Residue 1 = E
T17 peptide: EAEFRHDSGY
Procedure: as §1, §2

… analog, Residue 1 = G = target: T18, … analog, Residue 1 = G
T18 peptide: GAEFRHDSGY
Procedure: as §1, §2

… analog, Residue 1 = I = target: T19, … analog, Residue 1 = I
T19 peptide: IAEFRHDSGY
Procedure: as §1, §2

… analog, Residue 1 = K = target: T20, … analog, Residue 1 = K
T20 peptide: KAEFRHDSGY
Procedure: as §1, §2

… analog, Residue 1 = L = target: T21, … analog, Residue 1 = L
T21 peptide: LAEFRHDSGY
Procedure: as §1, §2

… analog, Residue 1 = N = target: T22, … analog, Residue 1 = N
T22 peptide: NAEFRHDSGY
Procedure: as §1, §2

… analog, Residue 1 = Q = target: T23, … analog, Residue 1 = Q
T23 peptide: QAEFRHDSGY
Procedure: as §1, §2

… analog, Residue 1 = S = target: T24, … analog, Residue 1 = S
T24 peptide: SAEFRHDSGY
Procedure: as §1, §2

… analog, Residue 1 = T = target: T25, … analog, Residue 1 = T
T25 peptide: TAEFRHDSGY
Procedure: as §1, §2

… analog, Residue 1 = W = target: T26, … analog, Residue 1 = W
T26 peptide: WAEFRHDSGY
Procedure: as §1, §2

… analog, Residue 1 = Y = target: T27, … analog, Residue 1 = Y
T27 peptide: YAEFRHDSGY
Procedure: as §1, §2

… analog, Residue 2 = G = target: T28, … analog, Residue 2 = G
T28 peptide: DGEFRHDSGY
Procedure: as §1, §2

… analog, Residue 2 = H = target: T29, … analog, Residue 2 = H
T29 peptide: DHEFRHDSGY
Procedure: as §1, §2

… analog, Residue 2 = I = target: T30, … analog, Residue 2 = I
T30 peptide: DIEFRHDSGY
Procedure: as §1, §2

… analog, Residue 2 = N = target: T31, … analog, Residue 2 = N
T31 peptide: DNEFRHDSGY
Procedure: as §1, §2

… analog, Residue 2 = P = target: T32, … analog, Residue 2 = P
T32 peptide: DPEFRHDSGY
Procedure: as §1, §2

… analog, Residue 2 = S = target: T33, … analog, Residue 2 = S
T33 peptide: DSEFRHDSGY
Procedure: as §1, §2

… analog, Residue 2 = T = target: T34, … analog, Residue 2 = T
T34 peptide: DTEFRHDSGY
Procedure: as §1, §2

… analog, Residue 2 = V = target: T35, … analog, Residue 2 = V
T35 peptide: DVEFRHDSGY
Procedure: as §1, §2

… analog, Residue 2 = W = target: T36, … analog, Residue 2 = W
T36 peptide: DWEFRHDSGY
Procedure: as §1, §2

… analog, Residue 3 = A = target: T37, … analog, Residue 3 = A
T37 peptide: DAAFRHDSGY
Procedure: as §1, §2

… analog, Residue 3 = C = target: T38, … analog, Residue 3 = C
T38 peptide: DACFRHDSGY
Procedure: as §1, §2

… analog, Residue 3 = F = target: T39, … analog, Residue 3 = F
T39 peptide: DAFFRHDSGY
Procedure: as §1, §2

… analog, Residue 3 = G = target: T40, … analog, Residue 3 = G
T40 peptide: DAGFRHDSGY
Procedure: as §1, §2

… analog, Residue 3 = H = target: T41, … analog, Residue 3 = H
T41 peptide: DAHFRHDSGY
Procedure: as §1, §2

… analog, Residue 3 = I = target: T42, … analog, Residue 3 = I
T42 peptide: DAIFRHDSGY
Procedure: as §1, §2

… analog, Residue 3 = L = target: T43, … analog, Residue 3 = L
T43 peptide: DALFRHDSGY
Procedure: as §1, §2

… analog, Residue 3 = N = target: T44, … analog, Residue 3 = N
T44 peptide: DANFRHDSGY
Procedure: as §1, §2

… analog, Residue 3 = P = target: T45, … analog, Residue 3 = P
T45 peptide: DAPFRHDSGY
Procedure: as §1, §2

… analog, Residue 3 = Q = target: T46, … analog, Residue 3 = Q
T46 peptide: DAQFRHDSGY
Procedure: as §1, §2

… analog, Residue 3 = R = target: T47, … analog, Residue 3 = R
T47 peptide: DARFRHDSGY
Procedure: as §1, §2

… analog, Residue 3 = S = target: T48, … analog, Residue 3 = S
T48 peptide: DASFRHDSGY
Procedure: as §1, §2

… analog, Residue 3 = T = target: T49, … analog, Residue 3 = T
T49 peptide: DATFRHDSGY
Procedure: as §1, §2

… analog, Residue 3 = W = target: T50, … analog, Residue 3 = W
T50 peptide: DAWFRHDSGY
Procedure: as §1, §2

… analog, Residue 3 = Y = target: T51, … analog, Residue 3 = Y
T51 peptide: DAYFRHDSGY
Procedure: as §1, §2
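Also: antibody binding measured against single-substituted peptide analogs, each epitope position replaced by every one of 19 non-native amino acids, compared with binding to the native Aβ peptide.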

B1: murine monoclonal antibody 3D6 (antibody, mouse IgG2b, V domains shown)
VH: EVKLVESGGGLVKPGASLKLSCAASGFTFSNYGMSWVRQNSDKRLEWVASIRSGGGRTYYSDNVKGRFTISRENAKNTLYLQMSSLKSEDTALYYCVRYDHYSGSSDYWGQGTTVTVSS
VL: not shown
notes: also called mAb 3D6; m3D6
In the case of B1, the OD (… analog, Residue 5 = G) is reported as 0.485 OD, the OD (… analog, Residue 7 = E) is reported as 0.565 OD and the OD (… analog, Residue 8 = C) is reported as 0.583 OD. For the same binder, the OD (… analog, Residue 8 = D) was 0.586 OD, the OD (… analog, Residue 8 = E) was 0.601 OD and the OD (… analog, Residue 8 = G) was 0.569 OD. It also gave an OD (… analog, Residue 8 = H) of 0.559 OD, an OD (… analog, Residue 8 = I) of 0.568 OD and an OD (… analog, Residue 8 = L) of 0.57 OD. The OD (… analog, Residue 8 = M) was 0.571 OD, the OD (… analog, Residue 8 = P) was 0.574 OD and the OD (… analog, Residue 8 = Q) was 0.59 OD. For the same binder, the OD (… analog, Residue 8 = R) was 0.589 OD, the OD (… analog, Residue 8 = T) was 0.586 OD and the OD (… analog, Residue 8 = W) was 0.567 OD. The OD (… analog, Residue 1 = A) was 0.464 OD, the OD (… analog, Residue 1 = E) was 0.576 OD and the OD (… analog, Residue 1 = G) was 0.569 OD. For the same binder, the OD (… analog, Residue 1 = I) was 0.048 OD, the OD (… analog, Residue 1 = K) was 0.033 OD and the OD (… analog, Residue 1 = L) was 0.073 OD. It also gave an OD (… analog, Residue 1 = N) of 0.587 OD, an OD (… analog, Residue 1 = Q) of 0.441 OD and an OD (… analog, Residue 1 = S) of 0.569 OD. The OD (… analog, Residue 1 = T) was 0.45 OD, the OD (… analog, Residue 1 = W) was 0.031 OD and the OD (… analog, Residue 1 = Y) was 0.341 OD. The OD (… analog, Residue 2 = G) was 0.527 OD, the OD (… analog, Residue 2 = H) was 0.534 OD and the OD (… analog, Residue 2 = I) was 0.522 OD. For the same binder, the OD (… analog, Residue 2 = N) was 0.525 OD, the OD (… analog, Residue 2 = P) was 0.445 OD and the OD (… analog, Residue 2 = S) was 0.587 OD. The OD (… analog, Residue 2 = T) was 0.552 OD, the OD (… analog, Residue 2 = V) was 0.55 OD and the OD (… analog, Residue 2 = W) was 0.553 OD. It also gave an OD (… analog, Residue 3 = A) of 0.038 OD, an OD (… analog, Residue 3 = C) of 0.222 OD and an OD (… analog, Residue 3 = F) of 0.034 OD. The OD (… analog, Residue 3 = G) was 0.016 OD, the OD (… analog, Residue 3 = H) was 0.016 OD and the OD (… analog, Residue 3 = I) was 0.019 OD. The OD (… analog, Residue 3 = L) was 0.019 OD, the OD (… analog, Residue 3 = N) was 0.024 OD and the OD (… analog, Residue 3 = P) was 0.017 OD. It also gave an OD (… analog, Residue 3 = Q) of 0.153 OD, an OD (… analog, Residue 3 = R) of 0.015 OD and an OD (… analog, Residue 3 = S) of 0.016 OD. For the same binder, the OD (… analog, Residue 3 = T) was 0.015 OD, the OD (… analog, Residue 3 = W) was 0.149 OD and the OD (… analog, Residue 3 = Y) was 0.016 OD.
